Laboratory results from article PMC4333214.
“And” between values parts separate entries of the source, which are not always exact repeats. Identical values can stand only once.

Target: FLβ.AP2 (AP2 comprising full-length β2, μ2 and σ2 subunits and the α-trunk domain) (UniProt P63010)
Assay: co-sedimentation

Chain of clathrin (Q00610 whole entry, looked up): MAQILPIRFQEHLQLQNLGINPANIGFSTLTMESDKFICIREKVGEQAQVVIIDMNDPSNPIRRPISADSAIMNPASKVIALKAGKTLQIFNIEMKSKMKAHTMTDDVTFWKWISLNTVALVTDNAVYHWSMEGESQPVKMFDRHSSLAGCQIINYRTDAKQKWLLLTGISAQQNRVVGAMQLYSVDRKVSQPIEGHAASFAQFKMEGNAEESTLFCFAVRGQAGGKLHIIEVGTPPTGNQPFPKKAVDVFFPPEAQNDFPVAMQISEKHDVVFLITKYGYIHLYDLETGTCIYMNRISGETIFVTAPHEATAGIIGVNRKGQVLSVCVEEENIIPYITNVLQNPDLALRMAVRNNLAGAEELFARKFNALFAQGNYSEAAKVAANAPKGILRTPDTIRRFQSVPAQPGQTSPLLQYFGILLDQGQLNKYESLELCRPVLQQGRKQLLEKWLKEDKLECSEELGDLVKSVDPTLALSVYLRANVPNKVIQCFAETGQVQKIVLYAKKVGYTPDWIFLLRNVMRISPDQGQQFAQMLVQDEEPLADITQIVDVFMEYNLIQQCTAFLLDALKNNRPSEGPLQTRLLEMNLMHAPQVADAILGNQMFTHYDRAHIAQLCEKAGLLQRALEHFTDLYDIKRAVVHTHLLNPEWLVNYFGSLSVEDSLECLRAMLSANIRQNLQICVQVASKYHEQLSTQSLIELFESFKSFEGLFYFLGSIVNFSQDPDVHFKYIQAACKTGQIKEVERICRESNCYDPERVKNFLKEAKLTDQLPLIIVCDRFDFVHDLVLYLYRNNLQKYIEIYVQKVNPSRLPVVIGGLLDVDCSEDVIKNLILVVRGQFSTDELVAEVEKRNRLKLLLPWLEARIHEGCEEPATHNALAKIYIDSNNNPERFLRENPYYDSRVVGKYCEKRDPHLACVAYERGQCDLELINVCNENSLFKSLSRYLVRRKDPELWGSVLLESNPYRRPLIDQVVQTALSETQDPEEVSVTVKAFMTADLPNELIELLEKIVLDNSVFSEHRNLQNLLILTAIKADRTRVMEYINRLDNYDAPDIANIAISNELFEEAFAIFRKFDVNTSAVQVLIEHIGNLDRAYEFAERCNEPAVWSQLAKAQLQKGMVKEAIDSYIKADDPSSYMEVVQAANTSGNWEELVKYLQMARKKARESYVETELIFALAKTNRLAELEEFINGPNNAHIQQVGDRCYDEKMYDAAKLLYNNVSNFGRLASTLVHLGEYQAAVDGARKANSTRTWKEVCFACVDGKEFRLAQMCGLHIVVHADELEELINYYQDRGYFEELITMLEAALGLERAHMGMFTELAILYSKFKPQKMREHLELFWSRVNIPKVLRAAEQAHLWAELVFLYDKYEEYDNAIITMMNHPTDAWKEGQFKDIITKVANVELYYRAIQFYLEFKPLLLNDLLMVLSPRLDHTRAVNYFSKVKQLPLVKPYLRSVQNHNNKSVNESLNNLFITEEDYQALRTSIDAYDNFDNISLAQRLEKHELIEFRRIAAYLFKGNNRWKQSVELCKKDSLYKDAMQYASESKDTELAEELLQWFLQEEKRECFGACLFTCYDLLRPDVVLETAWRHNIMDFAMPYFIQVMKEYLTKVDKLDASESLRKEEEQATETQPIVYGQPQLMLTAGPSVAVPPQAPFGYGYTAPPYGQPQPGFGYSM

## clathrin (from UniProt Q00610 1-1675) (complex)
  ratio of clathrin to AP2 in the liposome pellets: 26.5% and 5.2%
